According to publication PMC6505963:

Legend:
[1] = target: BLM RQC (GST-free) (human, UniProt P54132 1068-1209); experiment: fluorescence polarization; FP: 10 mM Tris-HCl pH 7.5, 25 mM NaCl, 1 mM DTT, 100 pM DNA, 25 C; EMSA: 10 mM Tris-HCl pH 8.0, 2 mM DTT, 1 mM EDTA, 20% glycerol, 0.2 uM DNA, 4 C, 30 min, 7.5%
[2] = target: GST-BLM RQC K1125A (human, UniProt P54132 1068-1209, K1125A); experiment: EMSA; FP: 10 mM Tris-HCl pH 7.5, 25 mM NaCl, 1 mM DTT, 100 pM DNA, 25 C; EMSA: 10 mM Tris-HCl pH 8.0, 2 mM DTT, 1 mM EDTA, 20% glycerol, 0.2 uM DNA, 4 C, 30 min, 7.5%
Sequence of GST-BLM RQC K1125A (P54132 1068-1209 K1125A): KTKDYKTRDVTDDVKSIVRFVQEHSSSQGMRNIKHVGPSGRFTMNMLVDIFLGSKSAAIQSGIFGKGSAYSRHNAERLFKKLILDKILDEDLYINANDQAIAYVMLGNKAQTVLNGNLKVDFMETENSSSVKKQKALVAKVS

[3] = target: GST-BLM RQC R1139A (human, UniProt P54132 1068-1209, R1139A); experiment: as above
Sequence of GST-BLM RQC R1139A (P54132 1068-1209 R1139A): as the sequence (P54132 1068-1209 K1125A) above, with A58K, R72A counted along it

[4] = target: GST-BLM RQC S1121A (human, UniProt P54132 1068-1209, S1121A); experiment: as above
Sequence of GST-BLM RQC S1121A (P54132 1068-1209 S1121A): as the sequence (P54132 1068-1209 K1125A) above, with S54A, A58K counted along it

[5] = target: GST-BLM RQC (human, UniProt P54132 1068-1209); experiment: EMSA; 1, 5, 10 uM protein; FP: 10 mM Tris-HCl pH 7.5, 25 mM NaCl, 1 mM DTT, 100 pM DNA, 25 C; EMSA: 10 mM Tris-HCl pH 8.0, 2 mM DTT, 1 mM EDTA, 20% glycerol, 0.2 uM DNA, 4 C, 30 min, 7.5%
Sequence of GST-BLM RQC (P54132 1068-1209): as the sequence (P54132 1068-1209 K1125A) above, with A58K counted along it

Sequence of BLM RQC (GST-free) (P54132 1068-1209): as the sequence (P54132 1068-1209 K1125A) above, with A58K counted along it

B1: forked duplex (dsDNA)
DNA 1: TTTTTTTTTTAGGGCATGCACTAC
DNA 2: GTAGTGCATGCCCTAATTTTTTTT
[1]
  Kd: ~700 nM

B2: Holliday junction (HJ) (structured_DNA)
DNA 1: CTAGAACAGCATGTCCTAGCAAGCCAGAATTC
DNA 2: GAATTCTGGCTTGCTAGGACATCTTTGCCCAC
DNA 3: GTGGGCAAAGATGTCCTAGCAATGTAATCGTC
DNA 4: GACGATTACATTGCTAGGACATGCTGTTCTAG
[2]
  binding signal: ~50 % loss of binding vs wild type
[3]
  binding signal: ~70 % loss of binding vs wild type
[4]
  binding signal: ~10 % loss of binding vs wild type
[5]
  binding result: binds
